Measured values taken from patent publication US20180195056.

How the values were obtained:
[1] = system: His14-xlGATE16-MBP
[2] = system: His14-xlLC3B-MBP

wheat (Triticum) Atg4 ortholog (trAtg4)
protease concentration for significant cleavage, against its cognate substrate trAtg8 and the yeast substrate [1]: the Xenopus xlGATE16 substrate required drastically (>100-fold) higher trAtg4 concentrations for significant cleavage
substrate cleavage in protease titration (100 µM substrate, 1 h, 25° C.) [2]: xlLC3B cleavage by trAtg4 was only barely detectable
